B1: TP53-binding protein 1 (Homo sapiens), Q12888 (parent)
chain: MDPTGSQLDSDFSQQDTPCLIIEDSQPESQVLEDDSGSHFSMLSRHLPNLQTHKENPVLDVVSNPEQTAGEERGDGNSGFNEHLKENKVADPVDSSNLDTCGSISQVIEQLPQPNRTSSVLGMSVESAPAVEEEKGEELEQKEKEKEEDTSGNTTHSLGAEDTASSQLGFGVLELSQSQDVEENTVPYEVDKEQLQSVTTNSGYTRLSDVDANTAIKHEEQSNEDIPIAEQSSKDIPVTAQPSKDVHVVKEQNPPPARSEDMPFSPKASVAAMEAKEQLSAQELMESGLQIQKSPEPEVLSTQEDLFDQSNKTVSSDGCSTPSREEGGCSLASTPATTLHLLQLSGQRSLVQDSLSTNSSDLVAPSPDAFRSTPFIVPSSPTEQEGRQDKPMDTSVLSEEGGEPFQKKLQSGEPVELENPPLLPESTVSPQASTPISQSTPVFPPGSLPIPSQPQFSHDIFIPSPSLEEQSNDGKKDGDMHSSSLTVECSKTSEIEPKNSPEDLGLSLTGDSCKLMLSTSEYSQSPKMESLSSHRIDEDGENTQIEDTEPMSPVLNSKFVPAENDSILMNPAQDGEVQLSQNDDKTKGDDTDTRDDISILATGCKGREETVAEDVCIDLTCDSGSQAVPSPATRSEALSSVLDQEEAMEIKEHHPEEGSSGSEVEEIPETPCESQGEELKEENMESVPLHLSLTETQSQGLCLQKEMPKKECSEAMEVETSVISIDSPQKLAILDQELEHKEQEAWEEATSEDSSVVIVDVKEPSPRVDVSCEPLEGVEKCSDSQSWEDIAPEIEPCAENRLDTKEEKSVEYEGDLKSGTAETEPVEQDSSQPSLPLVRADDPLRLDQELQQPQTQEKTSNSLTEDSKMANAKQLSSDAEAQKLGKPSAHASQSFCESSSETPFHFTLPKEGDIIPPLTGATPPLIGHLKLEPKRHSTPIGISNYPESTIATSDVMSESMVETHDPILGSGKGDSGAAPDVDDKLCLRMKLVSPETEASEESLQFNLEKPATGERKNGSTAVAESVASPQKTMSVLSCICEARQENEARSEDPPTTPIRGNLLHFPSSQGEEEKEKLEGDHTIRQSQQPMKPISPVKDPVSPASQKMVIQGPSSPQGEAMVTDVLEDQKEGRSTNKENPSKALIERPSQNNIGIQTMECSLRVPETVSAATQTIKNVCEQGTSTVDQNFGKQDATVQTERGSGEKPVSAPGDDTESLHSQGEEEFDMPQPPHGHVLHRHMRTIREVRTLVTRVITDVYYVDGTEVERKVTEETEEPIVECQECETEVSPSQTGGSSGDLGDISSFSSKASSLHRTSSGTSLSAMHSSGSSGKGAGPLRGKTSGTEPADFALPSSRGGPGKLSPRKGVSQTGTPVCEEDGDAGLGIRQGGKAPVTPRGRGRRGRPPSRTTGTRETAVPGPLGIEDISPNLSPDDKSFSRVVPRVPDSTRRTDVGAGALRRSDSPEIPFQAAAGPSDGLDASSPGNSFVGLRVVAKWSSNGYFYSGKITRDVGAGKYKLLFDDGYECDVLGKDILLCDPIPLDTEVTALSEDEYFSAGVVKGHRKESGELYYSIEKEGQRKWYKRMAVILSLEQGNRLREQYGLGPYEAVTPLTKAADISLDNLVEGKRKRRSNVSSPATPTASSSSSTTPTRKITESPRASMGVLSGKRKLITSEEERSPAKRGRKSATVKPGAVGAGEFVSPCESGDNTGEPSALEEQRGPLPLNKTLFLGYAFLLTMATTSDKLASRSKLPDGPTGSSEEEEEFLEIPPFNKQYTESQLRAGAGYILEDFNEAQCNTAYQCLLIADQHCRTRKYFLCLASGIPCVSHVWVHDSCHANQLQNYRNYLLPAGYSLEEQRILDWQPRENPFQNLKVLLVSDQQQNFLELWSEILMTGGAASVKQHHSSAHNKDIALGVFDVVVTDPSCPASVLKCAEALQLPVVSQEWVIQCLIVGERIGFKQHPKYKHDYVSH

Variants of: B1
Details: with h4_human H4C16, P62805

| effect of a mutation on the interaction | Variant |
| --- | --- |
| disrupting interaction strength | D1521R |
